Key:
[1] = biological target: T1, human soluble urokinase plasminogen activator receptor (suPAR) (human, UniProt Q03405 23-303, limits assumed); assay: off-rate (kdis) screen of scFv clones, biosensor (Octet)
T1 construct: Target antigen of the off-rate screen; also called hsuPAR; human suPAR

[2] = biological target: T2, cynomolgus soluble urokinase plasminogen activator receptor (suPAR) (cynomolgus, UniProt Q9GK78 23-303, limits assumed); assay: as above
T2 construct: Target antigen of the off-rate screen; also called cynomolgus uPAR; cynomolgus suPAR
T2 sequence (Q9GK78 23-303 limits assumed): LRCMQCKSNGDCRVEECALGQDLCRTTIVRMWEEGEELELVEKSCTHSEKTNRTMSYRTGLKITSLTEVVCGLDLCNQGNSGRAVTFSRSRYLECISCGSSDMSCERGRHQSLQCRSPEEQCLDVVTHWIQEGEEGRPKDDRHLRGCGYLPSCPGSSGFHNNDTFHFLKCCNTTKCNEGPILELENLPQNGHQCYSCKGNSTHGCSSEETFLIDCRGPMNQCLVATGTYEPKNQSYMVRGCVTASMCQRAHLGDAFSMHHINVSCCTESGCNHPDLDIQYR

T1 sequence (Q03405 23-303 limits assumed): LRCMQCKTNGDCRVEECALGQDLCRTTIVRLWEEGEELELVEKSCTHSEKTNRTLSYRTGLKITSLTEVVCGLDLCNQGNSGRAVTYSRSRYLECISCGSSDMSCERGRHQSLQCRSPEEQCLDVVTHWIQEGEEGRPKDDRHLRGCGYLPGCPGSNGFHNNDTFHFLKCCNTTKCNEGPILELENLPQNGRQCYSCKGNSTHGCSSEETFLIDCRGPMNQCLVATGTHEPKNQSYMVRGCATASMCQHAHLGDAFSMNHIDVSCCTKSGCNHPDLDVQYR

Binder	koff [1] [s⁻¹]	koff [2] [s⁻¹]
suPAR_DB01_C01 (scFv, V domains shown, screened as scFv) VH: QVQLVQSGAEVKKPGASVKVSCKASGYTFTGYYMHWVRQAPGQGLEWMGWIDHENGNTIYDQKFQGRVTMTRDTSTSTVYMELSSLRSEDTAVYYCARGYDVDWFVYWGQGTLVTVSS VL: DIQMTQSPSSLSASVGDRVTITCSARSSVSYMYWYQQKPGKAPKLLIYRTSNLASGVPSRFSGSGSGTDFTLTISSLQPEDFATYYCQQYHSYPPTFGGGTKVEIK	0.00122	0.000266
suPAR_DB01_A07 (scFv, V domains shown, screened as scFv) VH: QVQLVQSGAEVKKPGASVKVSCKASGGTFTSYYMHWVRQAPGQGLEWMGWIDHENGSTSYDQKFQGRVTMTRDTSTSTVYMELSSLRSEDTAVYYCARGYDVDWFVYWGQGTLVTVSS VL: DIQMTQSPSSLSASVGDRVTITCSARSSVSYMYWYQQKPGKAPKLLIYRTSNLASGVPSRFSGSGSGTDFTLTISSLQPEDFATYYCQQYHSYPPTFGGGTKVEIK	0.00571	0.00156
suPAR_DB01_A04 (scFv, V domains shown, screened as scFv) VH: QVQLVQSGAEVKKPGASVKVSCKASGYTFTGYYMHWVRQAPGQGLEWMGWIDHENGNTIYDQKFQGRVTMTRDTSTSTVYMELSSLRSEDTAVYYCARGYDVDWFVYWGQGTLVTVSS VL: DIQMTQSPSSLSASVGDRVTITCSASQSVSYMYWYQQKPGKAPKLLIYRTSNLASGVPSRFSGSGSGTDFTLTISSLQPEDFATYYCQQYHSYPPTFGGGTKVEIK	0.000911	0.00021
suPAR_DB01_A12 (scFv, V domains shown, screened as scFv) VH: QVQLVQSGAEVKKPGASVKVSCKASGYTFTGYYMHWVRQAPGQGLEWMGWIDPEGGNTIYAQKFQGRVTMTRDTSTSTVYMELSSLRSEDTAVYYCARGYDVDWFVYWGQGTLVTVSS VL: DIQMTQSPSSLSASVGDRVTITCSARSSVSYMYWYQQKPGKAPKLLIYRTSNLASGVPSRFSGSGSGTDFTLTISSLQPEDFATYYCQQYHSYPPTFGGGTKVEIK	0.00128	0.000142
suPAR_DB01_B01 (scFv, V domains shown, screened as scFv) VH: QVQLVQSGAEVKKPGASVKVSCKASGYTFTDYYMHWVRQAPGQGLEWMGWIDHENGNTIYDQKFQGRVTMTRDTSTSTVYMELSSLRSEDTAVYYCARGYDVDWFVYWGQGTLVTVSS VL: DIQMTQSPSSLSASVGDRVTITCSASQSVSYMYWYQQKPGKAPKLLIYRTSNLASGVPSRFSGSGSGTDFTLTISSLQPEDFATYYCQQYHSYPPTFGGGTKVEIK	0.0028	4.88e-07
suPAR_DB01_B04 (scFv, V domains shown, screened as scFv) VH: QVQLVQSGAEVKKPGASVKVSCKASGYTFTSYYMHWVRQAPGQGLEWMGWIDHENGNTIYDQKFQGRVTMTRDTSTSTVYMELSSLRSEDTAVYYCARGYDVDWFVYWGQGTLVTVSS VL: DIQMTQSPSSLSASVGDRVTITCSASSSVSYMYWYQQKPGKAPKLLIYRTSNLASGVPSRFSGSGSGTDFTLTISSLQPEDFATYYCQQYHSYPPTFGGGTKVEIK	0.00206	8.48e-05
suPAR_DB01_C02 (scFv, V domains shown, screened as scFv) VH: QVQLVQSGAEVKKPGASVKVSCKASGYTFNTYYMHWVRQAPGQGLEWMGWIDPENGNTIYDQKFQGRVTMTRDTSTSTVYMELSSLRSEDTAVYYCARGYDVDWFVYWGQGTLVTVSS VL: DIQMTQSPSSLSASVGDRVTITCSASSSVSYMYWYQQKPGKAPKLLIYRTSSLQSGVPSRFSGSGSGTDFTLTISSLQPEDFATYYCQQYHSYPPTFGGGTKVEIK	0.00353	0.000234
suPAR_DB01_B12 (scFv, V domains shown, screened as scFv) VH: QVQLVQSGAEVKKPGASVKVSCKASGYTFTSYYMHWVRQAPGQGLEWMGWIDPENGNTIYDQKFQGRVTMTRDTSTSTVYMELSSLRSEDTAVYYCARGYDVDWFVYWGQGTLVTVSS VL: DIQMTQSPSSLSASVGDRVTITCSARSSVSYMYWYQQKPGKAPKLLIYRTSNLASGVPSRFSGSGSGTDFTLTISSLQPEDFATYYCQQYHSYPPTFGGGTKVEIK	0.00298	0.000238
suPAR_DB01_A03 (scFv, V domains shown, screened as scFv) VH: QVQLVQSGAEVKKPGASVKVSCKASGYTFTSNYIHWVRQAPGQGLEWMGWIDHENGSTSYDQKFQGRVTMTRDTSTSTVYMELSSLRSEDTAVYYCARGYDVDWFVYWGQGTLVTVSS VL: DIQMTQSPSSLSASVGDRVTITCSARSSVSYMYWYQQKPGKAPKLLIYRTSNLASGVPSRFSGSGSGTDFTLTISSLQPEDFATYYCQQYHSYPPTFGGGTKVEIK	0.00256	0.000231
suPAR_DB01_B08 (scFv, V domains shown, screened as scFv) VH: QVQLVQSGAEVKKPGASVKVSCKASGYTFTGYYMHWVRQAPGQGLEWMGWIDPENGSTIYDQKFQGRVTMTRDTSTSTVYMELSSLRSEDTAVYYCARGYDVDWFVYWGQGTLVTVSS VL: DIQMTQSPSSLSASVGDRVTITCSARSSVSYMYWYQQKPGKAPKLLIYRTSNLASGVPSRFSGSGSGTDFTLTISSLQPEDFATYYCQQYHSYPPTFGGGTKVEIK	0.00371	0.000211

Other lines, results leading:

koff [1] [s⁻¹]	koff [2] [s⁻¹]	Binder
0.00194	0.000299	suPAR_DB01_A10 (scFv, V domains shown, screened as scFv) VH: QVQLVQSGAEVKKPGASVKVSCKASGYTFSNYYMHWVRQAPGQGLEWMGWIDHENGNTIYDQKFQGRVTMTRDTSTSTVYMELSSLRSEDTAVYYCARGYDVDWFVYWGQGTLVTVSS VL: DIQMTQSPSSLSASVGDRVTITCSARSSVSYMYWYQQKPGKAPKLLIYRTSNLASGVPSRFSGSGSGTDFTLTISSLQPEDFATYYCQQYHSYPPTFGGGTKVEIK
0.00329	3.5e-07	suPAR_DB01_B03 (scFv, V domains shown, screened as scFv) VH: QVQLVQSGAEVKKPGASVKVSCKASGFNIKDYYIHWVRQAPGQGLEWMGWIDPENGNTIYAQKFQGRVTMTRDTSTSTVYMELSSLRSEDTAVYYCARGYDVDWFVYWGQGTLVTVSS VL: DIQMTQSPSSLSASVGDRVTITCRASSSVSYMYWYQQKPGKAPKLLIYRTSNLASGVPSRFSGSGSGTDFTLTISSLQPEDFATYYCQQYHSYPPTFGGGTKVEIK
0.00253	4.27e-07	suPAR_DB01_A06 (scFv, V domains shown, screened as scFv) VH: QVQLVQSGAEVKKPGASVKVSCKASGYTFTSYYMHWVRQAPGQGLEWMGWIDHENGNTIYDQKFQGRVTMTRDTSTSTVYMELSSLRSEDTAVYYCARGYDVDWFVYWGQGTLVTVSS VL: DIQMTQSPSSLSASVGDRVTITCRARQSVSYMYWYQQKPGKAPKLLIYRTSNLASGVPSRFSGSGSGTDFTLTISSLQPEDFATYYCQQYHSYPPTFGGGTKVEIK
0.00105	0.00108	suPAR_DB01_B10 (scFv, V domains shown, screened as scFv) VH: QVQLVQSGAEVKKPGASVKVSCKASGYTFSSYYMHWVRQAPGQGLEWMGWIDPENGSTIYDQKFQGRVTMTRDTSTSTVYMELSSLRSEDTAVYYCARGYDVDWFVYWGQGTLVTVSS VL: DIQMTQSPSSLSASVGDRVTITCSARQSVSSMYWYQQKPGKAPKLLIYRTSNLASGVPSRFSGSGSGTDFTLTISSLQPEDFATYYCQQYHSYPPTFGGGTKVEIK
0.00348	5.62e-07	suPAR_DB01_B06 (scFv, V domains shown, screened as scFv) VH: QVQLVQSGAEVKKPGASVKVSCKASGYTFTDYYMHWVRQAPGQGLEWMGWIDHENGNTIYDQKFQGRVTMTRDTSTSTVYMELSSLRSEDTAVYYCARGYDVDWFVYWGQGTLVTVSS VL: DIQMTQSPSSLSASVGDRVTITCRARSSVSYMYWYQQKPGKAPKLLIYRTSNLASGVPSRFSGSGSGTDFTLTISSLQPEDFATYYCQQYHSYPPTFGGGTKVEIK
0.00273	8.79e-05	suPAR_DB01_B11 (scFv, V domains shown, screened as scFv) VH: QVQLVQSGAEVKKPGASVKVSCKASGYTFTDYYMHWVRQAPGQGLEWMGWIDHENGSTSYDQKFQGRVTMTRDTSTSTVYMELSSLRSEDTAVYYCARGYDVDWFVYWGQGTLVTVSS VL: DIQMTQSPSSLSASVGDRVTITCSARSSVSYMYWYQQKPGKAPKLLIYRTSNLASGVPSRFSGSGSGTDFTLTISSLQPEDFATYYCQQYHSYPPTFGGGTKVEIK
0.00407	0.000181	suPAR_DB01_B05 (scFv, V domains shown, screened as scFv) VH: QVQLVQSGAEVKKPGASVKVSCKASGYTFTNYYMHWVRQAPGQGLEWMGWIDPENGNTIYDQKFQGRVTMTRDTSTSTVYMELSSLRSEDTAVYYCARGYDVDWFVYWGQGTLVTVSS VL: DIQMTQSPSSLSASVGDRVTITCRASSSVSYMYWYQQKPGKAPKLLIYRTSNLASGVPSRFSGSGSGTDFTLTISSLQPEDFATYYCQQYHSYPPTFGGGTKVEIK
0.0015	0.000479	suPAR_DB01_A11 (scFv, V domains shown, screened as scFv) VH: QVQLVQSGAEVKKPGASVKVSCKASGYTFTNYYMHWVRQAPGQGLEWMGWIDHENGNTIYDQKFQGRVTMTRDTSTSTVYMELSSLRSEDTAVYYCARGYDVDWFVYWGQGTLVTVSS VL: DIQMTQSPSSLSASVGDRVTITCSASQSVSYMYWYQQKPGKAPKLLIYRTSNLASGVPSRFSGSGSGTDFTLTISSLQPEDFATYYCQQYHSYPPTFGGGTKVEIK
0.00174	0.000326	suPAR_DB01_A05 (scFv, V domains shown, screened as scFv) VH: QVQLVQSGAEVKKPGASVKVSCKASGYTFTGYYMHWVRQAPGQGLEWMGWIDHENGNTIYDQKFQGRVTMTRDTSTSTVYMELSSLRSEDTAVYYCARGYDVDWFVYWGQGTLVTVSS VL: DIQMTQSPSSLSASVGDRVTITCRARQSVSYMYWYQQKPGKAPKLLIYRTSNLASGVPSRFSGSGSGTDFTLTISSLQPEDFATYYCQQYHSYPPTFGGGTKVEIK
0.00142	0.000177	suPAR_DB01_B02 (scFv, V domains shown, screened as scFv) VH: QVQLVQSGAEVKKPGASVKVSCKASGYTFTNYYMHWVRQAPGQGLEWMGWIDHENGNTIYDQKFQGRVTMTRDTSTSTVYMELSSLRSEDTAVYYCARGYDVDWFVYWGQGTLVTVSS VL: DIQMTQSPSSLSASVGDRVTITCSARSSVSYMYWYQQKPGKAPKLLIYRTSNLASGVPSRFSGSGSGTDFTLTISSLQPEDFATYYCQQYHSYPPTFGGGTKVEIK
0.00403	0.000303	suPAR_DB01_C04 (scFv, V domains shown, screened as scFv) VH: QVQLVQSGAEVKKPGASVKVSCKASGYTFTGYYMHWVRQAPGQGLEWMGWIDPEGGSTIYDQKFQGRVTMTRDTSTSTVYMELSSLRSEDTAVYYCARGYDVDWFVYWGQGTLVTVSS VL: DIQMTQSPSSLSASVGDRVTITCSARSSVSYMYWYQQKPGKAPKLLIYRTSNLASGVPSRFSGSGSGTDFTLTISSLQPEDFATYYCQQYHSYPPTFGGGTKVEIK
